The target in data set [1] is T1, Bcl-xL/Bak GD domain interaction (Homo sapiens, UniProt Q07817).
T1 construct: made in house; host or cells: E. coli
Put plainly: High through-put screening assay 2: GST-Bcl-xL binding to biotinylated Bak GD peptide on neutravidin wells, ELISA. Conditions: competing peptide added, ELISA signal. As to the method: An assay was developed to screen for compounds that block the interaction between the Bcl-2 homologs, Bcl-xL and Bak. A synthetic peptide corresponding to the Bak GD binding domain ([…] [SEQ ID NO: 35]) was biotinylated and bound to wells coated with neutravidin. […] Peptides encompassing the GD domain from various Bcl-2 family members were tested for their ability to block GD domain-mediated interactions in this assay. Peptides tested: Bcl-w [SEQ ID NO: 39] […] ([…]), Bak [SEQ ID NO: 36]([…]), Bak-15 [SEQ ID NO: 37] ([…]), Bak-15L78A [SEQ ID NO: 38] ([…]), control (no peptide).
In a modification of the high through-put screening assay 1 described herein, wells are coated with an avidin derivative, to which a biotinylated peptide/protein is bound. A GST-fusion protein that can interact with the biotinylated peptide/protein is added in the presence or absence of test compounds. The plates are incubated and then unbound GST-fusion protein is removed by washing. The amount of GST-fusion protein specifically bound to the tethered peptide/protein is determined by ELISA using an anti-GST antibody conjugated to horse radish peroxidase. Compounds which block the interaction between the biotinylated peptide/protein and the GST-fusion protein cause a decrease in the ELISA signal.
In a specific example, an assay was developed to screen for compounds that block the interaction between the Bcl-2 homologs, Bcl-xL and Bak. A biotinylated Bak GD domain peptide (amino acid residues 71-89; N-biotinylated […] [SEQ ID NO: 35]) was bound to wells coated with neutravidin. […] Using this assay, peptides from Bcl-2 family members were identified which block the Bcl-xL/Bak GD domain interaction (FIG. 10).

A further data set concerns Rat-1 cells. The data set is described as follows: Transient transfection cell killing assay (loss of β-galactosidase-positive blue cells). Type of data set: cell-based. Conditions: for cell killing activity (reduction in number of blue β-gal expressing cells): Rat-1 cells co-transfected with β-galactosidase marker plasmid, 24 hours post transfection, relative to control vector. On the procedure: The transient transfection assay procedure is similar to that previously described for detecting apoptosis induced by IL-1E-converting enzyme (Miura et al., Cell 75: 653-660 (1993); Kumar et al., Genes Dev. 8: 1613-1626 (1994); Wang et al., Cell 78: 739-750 (1994). One day prior to transfection, Rat-1 cells were plated in 24 well dishes at 3.5X10^4 cells/well. The following day, the cells were transfected with a marker plasmid encoding β-galactosidase (0.16 μg), in combination with an expression plasmid encoding Bak (0.42 μg), by the Lipofectamine procedure (Gibco/BRL). At 24 hours post transfection, cells were fixed and stained with X-Gal to detect J-galactosidase expression in cells that received plasmid DNA (Miura et al., supra). The number of blue cells was counted by microscopic examination and scored as either live (flat blue cells) or dead (round blue cells). The cell killing activity of Bak in this assay is manifested by a large reduction in the number of blue cells obtained relative to co-transfection of the β-gal plasmid with a control expression vector (i.e., with no bak cDNA insert).
The interpretation that loss of blue cells reflects the cell killing function of Bak is supported by a variety of observations: • 1. Rat-1 cells are rapidly killed by enforced Bak expression in stable transfection assays; • 2.
Enforced bak expression induces apoptosis in stable Rat-1 cell lines transfected with an inducible bak expression plasmid. In order to more rapidly assess the cell killing function of a large number of bak mutants, a transient transfection assay was employed. Rat-1 cells were transfected with a marker plasmid encoding β-galactosidase, in combination with an expression plasmid encoding Bak, or various control plasmids.

Another data set deals with Bcl-xL (Homo sapiens, UniProt Q07817). The data set is described as follows: In vitro protein binding assay, 35S labeled protein with GST-Bcl-xL on glutathione-agarose beads. The arrangement: made in house; host or cells: E. coli. Particulars: tested both in vitro and in transfected COS cells. On the procedure: A). Bak/Bcl-xL interactions measured in vitro. ^35S labeled in vitro translated Bak (lane 1) was mixed either with GST-Bcl-xL (lane 2) or GST (lane 3). The complexes were captured on glutathione-agarose beads, and bound ^35S labeled Bak protein was detected by electrophoresis on SDS polyacrylamide gels followed by autoradiography.
The beads were removed by centrifugation and the supernatants were incubated with GST or GST-Bcl-xL (final concentration […]) at 4° C. for 1 hour. The GST fusion proteins and any interacting proteins were recovered by incubation for 1 hour with an additional […] of GSH-agarose beads. The beads were washed twice with NP-40 lysis buffer followed by two washes with NP-40 lysis buffer without NP-40. Proteins were eluted from the beads by incubation in SDS-PAGE sample buffer at 100° C. for 5 min and loaded onto 4-20% SDS-polyacrylamide gels. Following electrophoresis, gels were fixed and incubated in a fluorography enhancing solution (Amplify; Amersham). The gels were dried and subjected to autoradiography at −70° C.

Another data set has as its system HeLa cells. Put plainly: Microinjection assay, protection from anti-Fas and cycloheximide induced death. Type of data set: cell-based. Conditions: for effect on cell viability: HeLa cells, microinjected peptide, absence of anti-Fas treatment. On the procedure: HeLa cells (>100 cells/condition) were microinjected without (buffer) or with GST-Bcl-xL (0.3 mg/ml) in the absence or presence of GD domain peptides (0.5 mg/ml) and the recovery of live injected cells was determined after treatment with anti-Fas and cycloheximide for 18 hours. FITC-dextran was coinjected as a marker. A 15-amino acid Bak GD domain peptide (Bak-15; residues 73-87; […] [SEQ ID NO: 37]) and a mutant Bak GD domain peptide with an alanine substitution at leucine 78 (Bak-15L78A; […] [SEQ ID NO: 38]) were tested.
A cell-based microinjection assay is provided for the identification of agents that antagonize GD domain-mediated interactions and inhibit the cell death suppression activity of Bcl-xL and/or Bcl-2. One or preferably more than one cells are microinjected with a death suppressor protein, such as Bcl-xL or Bcl-2, which protects the cells from induction of cell death by an apoptosis-inducing agent, in the presence of a test compound, composition or agent. Compounds that bind to the death suppressor protein and prevent its protective function, resulting in the death of the microinjected cells, can thereby be identified.
The ability of GD domain peptide variants to inhibit the function of Bcl-xL correlated with their ability to bind to Bcl-xL (see FIG. 10). […] Similar results were obtained with MRC5 human diploid fibroblasts where protection from anti-Fas-induced death by microinjected Bcl-xL was inhibited by co-injection of the wild-type, but not mutant, Bak BH3 peptide.
Microinjection procedure: HeLa cells were plated in complete DMEM in 60 mm dishes at 2.4×10^5 cells per dish. […] Following injection, the cells were returned to the incubator and after 1 hour the number of injected cells was determined by fluorescence microscopy. Cells were then treated with anti-Fas mAb (7C11) and cycloheximide ([…]) and the recovery of injected cells remaining after 18 hours was determined.

Ends that are not written are not given here.

Bcl-xL, sequence (Q07817 whole entry, the tested form may be a part): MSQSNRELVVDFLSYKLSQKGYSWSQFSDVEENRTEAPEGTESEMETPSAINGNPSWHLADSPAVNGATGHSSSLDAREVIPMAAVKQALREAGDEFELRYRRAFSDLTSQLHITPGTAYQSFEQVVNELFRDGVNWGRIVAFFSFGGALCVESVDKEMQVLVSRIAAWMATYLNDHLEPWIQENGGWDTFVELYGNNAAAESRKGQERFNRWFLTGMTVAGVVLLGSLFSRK
T1 sequence (Q07817 whole entry, the tested form may be a part): as above

As to AADPLHQAMRAAGDEFETRF [Bcl-w peptide], in data set [1], the “inhibition of Bcl-xL/Bak GD domain binding” value (from here on “inhibition”) is listed as “did not block binding”.

As to “Bax: Bcl-2 homolog and Bcl-2 interacting protein that induces apoptosis”, the “cell killing activity (reduction in number of blue β-gal expressing cells)” value in the data set with Rat-1 cells is listed as “eliminate blue cells”. In the data set with Bcl-xL, the Bcl-xL binding capacity entry is on record as “interact specifically with Bcl-xL”.

Regarding “Bcl-xL: long form of bcl-x product, suppresses apoptosis”, the “restoration of number of blue cells on co-transfection with Bak” value with Rat-1 cells (Rat-1 cells, co-transfection of Bak with Bcl-xL) is “partially restored”.

As to “GSDALALRLACIGDEMDVSL [Bip1a peptide, peptide encompassing the GD domain from Bip1a]”, the “inhibition” value in data set [1] is “concentration-dependent inhibition of binding”.

Turning to “GST-Bcl-xL: bacterially-expressed GST fusion protein of the survival protein Bcl-xL”, in the data set with HeLa cells (HeLa cells microinjected with 0.3 mg/ml protein, anti-Fas and cycloheximide 18 hours), the “protection from death induced by Fas ligation” value is “efficiently protected HeLa cells from death”.

Consider “PEM: truncated Bak protein derivative corresponding to amino acids 58-103 (PEMVTLPLQPSSTMGQVGRQLAIIGDDINRRYDSEFQTMLQHLQPT; not fully specified)”, for which the Bcl-xL binding capacity result with Bcl-xL is recorded as “bound Bcl-xL”.

Take “QVG: truncated Bak protein derivative corresponding to amino acids 73-123 (QVGRQLAIIGDDINRRYDSEFQTMLQHLQPTAENAYEYFTKIATSLFESGI; not fully specified)”: in the data set on Rat-1 cells, the “cell killing activity (reduction in number of blue β-gal expressing cells)” value was “significantly reduced the number of blue cells”. The Bcl-xL binding capacity result in the data set with Bcl-xL was “bound Bcl-xL”.

QVGRQAAIIGDDINR [Bak-15L78A]: the “effect on cell viability” value in the data set with HeLa cells is recorded as “neither peptide had an effect on cell viability”.

In the case of QVGRQLAIIGDDINR [Bak-15], the “effect on cell viability” value in the data set on HeLa cells is “neither peptide had an effect on cell viability”.

On to “STKKLSECLKRIGDELDSNH [Bax peptide, peptide encompassing the GD domain from Bax]”, for which, in data set [1], the “inhibition” value was “concentration-dependent inhibition of binding”.

B1: Bip1a: Bcl-2 interacting protein that induces apoptosis, lacks BH1 and BH2 (protein)
chain: MSEVRPLSRDILMETLLYEQLLEPPTMEVLGMTDSEEDLDPMEDFDSLECMEGSDALALRLACIGDEMDVSLRAPRLAQLSEVAMHSLGLAFIYDQTEDIRDVLRSFMDGFTTLKENIMRFWRSPNPGSWVSCEQVLLALLLLLALLLPLLSGGLHLLLK
With B1, the “cell killing activity (reduction in number of blue β-gal expressing cells)” value in the data set with Rat-1 cells is “eliminate blue cells”. For the same molecule, the Bcl-xL binding capacity result with Bcl-xL is “interact specifically with Bcl-xL”.

B2: Bax ΔGD: Bax mutant with small deletion removing the conserved GD domain motif (protein)
chain: MDGSGEQPRGGGPTSSEQIMKTGALLLQGFIQDRAGRMGGEAPELALDPVPQDASTKKMELQRMIAAVDTDSPREVFFRVAADMFSDGNFNWGRVVALFYFASKLVLKALCTKVPELIRTIMGWTLDFLRERLLGWIQDQGGWDGLLSYFGTPTWQTVTIFVAGVLTASLTIWKKMG
Consider B2, for which the “cell killing activity (reduction in number of blue β-gal expressing cells)” value with Rat-1 cells is reported as “impaired in their ability to eliminate blue cells”. Further, in the data set with Bcl-xL, the Bcl-xL binding capacity entry is given as “no longer have the capacity to interact with Bcl-xL”.

B3: Bip1a ΔGD: Bip1a mutant with small deletion removing the conserved GD domain motif (protein)
chain: MSEVRPLSRDILMETLLYEQLLEPPTMEVLGMTDSEEDLDPMEDFDSLECMEGSDALRAPRLAQLSEVAMHSLGLAFIYDQTEDIRDVLRSFMDGFTTLKENIMRFWRSPNPGSWVSCEQVLLALLLLLALLLPLLSGGLHLLLK
Turning to B3, the “cell killing activity (reduction in number of blue β-gal expressing cells)” value in the data set on Rat-1 cells is “impaired in their ability to eliminate blue cells”. In addition, in the data set with Bcl-xL, the Bcl-xL binding capacity entry is “no longer have the capacity to interact with Bcl-xL”.

The values above are taken from patent US7358088B2, “Peptides and compositions which modulate apoptosis” (ImmunoGen, Inc., priority 1995, dated 2008).
